The nanobody polyreactivity screen of Harvey et al. (2022)

Assay: yeast display, Sf9 membrane polyspecificity reagent, FACS + sequencing; frameworks hold sequencing errors
Outline: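 Genes from sorted yeast were amplified by colony PCR, read by MiSeq 2 × 250 sequencing and filtered on CDR length. These cells carried a synthetic nanobody library in Saccharomyces cerevisiae BJ5465 and were sorted by FACS into low and high (top ~1%) gates on anti-HA and streptavidin fluorescence. Polyreactivity is labelled according to the gate of origin.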

Sequence | polyreactivity (PSR sort gate)
QVQLVESGGGLVQAGGSLRLSCAASGSTFYRYAMGWYRQAPGKERELVAAISWDGGRTYYADSVKGRFTISRDNAKNTVYLQMNSLKPEDTAVYYCNARSSQYLGRYDYWGQGTQVTVSS | high polyreactivity
QVQLEESGGGLVHAGGILRLSCAASGYTFYYNAMGWYRQAPGKERELVAAISRSRDTTYYADSVKGRFTISRDNAKYTVYLQMYSLKPEDTEVYYCNAVVQVLADFQKYDYWGQGSQVTVSS | low polyreactivity
QVQLVESGGGLVQAGGSLRLSCASSGGTFVTNAMGWYRQAPAKERELVAAISYDGGITYYADSVKGRFTISRDNAKNTVYLKMNSLKPEDTAVYYGAAYRRYRNWFNYWGQGTQVTVSS | high polyreactivity
QVQLVESGGGLVQAGGTLRLSCAASGRTFTSYTMGWYRQAPGKERELVATISFGGGRTYADSVKGRFTISRDNAKNTVYLQMNSLKTEDTAVYYCNAGYYWRLHWWYYYWGQGTQVTVSS | high polyreactivity
QVQLVESGGGLVQAGGSLRLSCAASGSIFDVNAMGWYRQAPGKERELVAAISDSGGSTYYADSVKGRFTISRDNAKNTVYLQMNSLKPEDTAVYYCNADWYWYNYYDFDYWGQGTQVTVSS | low polyreactivity
QVQLVESGGGLVQAGGSLRLSCAASGRIFRVYAMGWYRHAPGKERELVAAISGRGGSTTYADSVKGRFTISRDNAKNTVYLQMNSLKPEDTAVYYCNTAYLAKRSGRRRFNYWGHGTQVTVSS | low polyreactivity
QVQLVESGGGLVQAGGSLRLSCAASGSTFGANAKGWYRQAPGKARALVAAITWSGGSTYYADSVKGRFTISRDNAKNTVFLQMNSLKPEDTAVSYCNAVARWYVLQVYEYDYWGQGTQVTVSS | low polyreactivity
QVQLLESGGGLVQAGGSLRLSCAASGRIFSENAMGWYRQAPGKERELVAAITGNGGDTYYADSVKGRFTISRDNAMNTVYLQMNSLKPEDTAVYYSAAETGGLGGEYWGQGTHVTVSS | low polyreactivity
QVQLVESGGGLVQAGGSLRLSCAASGSIFGDYAMGWYRQAPGKERELVAAIRYIGVSTYYADSVKGRFTISRDNAKNTVYLQMNSLKPEDTAVYYCAAEVYYEYYYWRYYWGQGTQVTVSS | high polyreactivity
QVQLVESGGGLVQAGGSLRLSCAASGSIFEPNAMGWYRQAPGKERELVAAISWNDGDTYYADSVKGRFTISRDNAKNTVYLQMNCLKPEDTAVYYCAAETGYAFDYWGQGTQVTVSS | low polyreactivity
QVQLVESGGVLVQAGGSLRLSCAASGRIFSNYAMGWYRQAPGKEWELVATIRKGGGSTYYADSVKGRFTISRDNAKNTVYLQMNSLKPEDTAVYYCAADGSLQTRRFDYWGQGTQVTVSS | high polyreactivity
QVQLVESGVGLVQAGGSLRLSCAASGFTFKSYTMGWYRQAPGKERELVANISRRGGSTYYADSVKGRFTISRDTAKNTVYLQMNRLKPEDTAVYYCAADAYGFLYTTYRYFYWGQGTQVTVST | high polyreactivity
QVQLVESGGGLFQAGGSLRISCAASGSTFYHNFMGWYRQAPGKERELVARITSTDSTYYEDSVKGRFTISGDNAKNTVYLQMNSLKPEYTAVSYCAASWWSPYDYWGQATQVTVSS | low polyreactivity
QVQLVESGGGLVQAGGSLRLICAASGFIFTGYVMGWYRQEPGKERELVAAISSRGGSTYYADSVKGRFTISRDNAKNTVYLQMNSLKPEDTAVYYCAARYVYGSSYDYWGQGTQVTVSS | high polyreactivity
QVQLVESGGGLVQAGGSLRLSCAASGRTIYRYALGWYRQAHGKERELVSRIRSGGSTNYADSVKGRFTISRDNAKNTVYLQMNSLKPEDTAVYYCAARVLDLGKNTYYRYALGYWGQGTQVTVSS | high polyreactivity
QVQLVESGGGLVQAGGSLRLTCAASGRIFSYNAMGWYRQAPGKERELVAAITGGGSTNYADSVKGRFTISRDNAKNTVFLQMNSLKPEDTAVYYCAARSWSYKYWGQGTQVTVSS | high polyreactivity
QVQLVESGGGLVQAGGSLRLSCAASGSIFDFNTMGWYIQAPGKERELVAAISQRTGRTYYADSVKGRFTISRDKAKNTVYLQMNSLKPEDTAVYYCAKVAVAGRGSGNYINHRFEYWGQGTQVTVSS | high polyreactivity
QVQLVESGGGLVQAGGSLRLSCAASGRTFYDYDMGWYRQAPGKERELFAAISGGDSTYYADSVKGRFTISRDNAKNTFYLQLKSLKPEDTAVYDCAVTPRGLPYGAYLLYYWGQGTQVTVSS | low polyreactivity
QVHLVESGGGLVQAGGSLRLSCAASGFIFYYYTMGWYRQAPGKEREFVAAITYSGGRTYYADSVKGRFTISRDNAKNSVYLQMNSLKPEDTSVYYCAAVPRYGPSYRMDYWGQGTQVTVSS | high polyreactivity
QVQLVESGGGLVQAGGSLRLSCAASGRTFSIYAMGCYRQAPGKEREFVAAIRDRGTSTYYADSVKGRFTISRDNAKNTVYLQMNSLKPEDTGVFYCAAVRPYKYQDRDYWGQGTQVTVSS | high polyreactivity
QVQLVESGGGLVQAGGSLRLSCDASGSIFQNYAMGWYRQAPGKERELVAAINDDSTYYADSVKGRFTISRDNAKNTVYLQMNSLKPEDTAVYYCNAEDYVTLKIDLSWPYGYWGQGTQVTVSS | low polyreactivity
QVQLVESGGGLVQAGVSLRFSCAASGYIFDVNALGWYRQEPGKERELVAAISQRGTRTYYADSVKGRFTITRDNANNTVFLQMNSLKPEYTAVYYCNRGGWRQYDSWGQGTQVTVSS | high polyreactivity

Sequence | polyreactivity (PSR sort gate)
QVQLVESGGGLVQAGGSLRLSCAASGLTIWRYAMGWYIQAPGKERDLLAAISRSGIRTYYADSVKGRFTISRDTAKITVYLQMNSLKPEDTAVYYCAADSNAYITGRDYWGQVTQVTVSS | high polyreactivity
QVQLVESGGGIVQAGGSLRLSCAASGSIFLYYAMGWYRQAPGKERELVAPIRGSGSSTYYADSVKGRFTISRDNAKNTVYLQMNSLKPEDTAVYYCSAKGYRWFRHGGYYFKFDYWGQGTQVTVSS | high polyreactivity
QDQLVESGGGLVQAGGSLRLSCAASGSTFRRYAIGWYRQAPGKERELVAAITSGGRTNYADSVKGRFTISRDNAKNTVYLQMNSLKPEDTAVYYCNAKAYKLGQSYWGYDYWGQGTQVTVSS | high polyreactivity
QVQLVESGGGLVQAGGSLRLSCAASGRTFSYYAMGWYRQAPGKERSLVAAISWSGGRTYYADSVKGRFTISRDNAKNTVYLQMNSLKPEDTAVYYCAARYVYPYWYGDYYWGQGTQVTVSS | low polyreactivity
QVQLVESGGGLVQAGGSLRLSCAASGFTIGYKVMGWYRQAPGKERELVATISWNGARTYYADSVKGRFTISRDNAKNTVYLQMNSLKPEDTAVYYCAARRYYRGEYDYWGQGTQVTVSS | low polyreactivity
QVQLVETGGGLVQAGGSLRLSSAASGSILEGYAMGWYRQAPGKERELVPAISRSGGSTYYADSVKGRFTISRDNAKNTVYLQMKSLKPEDTAVYYCAARYRLDGTHLTGYAYYSWGQGTQGTVSS | high polyreactivity
QVQLVESGGGLVQAGGSLRLSCAASGFTFYRYTMGWYRQAPGIYRELVAAISSGDSTYYADSVKGRFTISRDNAKNTVYLQMNSLKPEDTAVYYCAARQYSRGAIVYYWGQGTQVTVSS | high polyreactivity
QVQLVESGGGLVQAGGSLRLSCAASGRTFAIYVMGWYRHAPGKERELVAAITRVGSTYADSVKGRFTISRDNAKNTVYLQMNSLKPEDTAVYYCAAVSGVRSGPWRYDYWGQGTQVTVSS | high polyreactivity
QVQLVESAGGLVQAGGSLRLSCAPSGRTFYGNAMGWYRQAPGTERELVAAISSRGGSTYYADSVKGRFTISRDNANNTVYLQMNSLKPEDTAVYYCNVANGLSQVYRYNYWGQGTQVTVSS | high polyreactivity
QVQLVESGGGLVQAGGILRLSCAASGRTFAYNTMGWYRQAPGKERQLVAAISSDGSTNYADSVKGRFTISRDNAKNTVYLQMNSLKPEDTAVYYCAKGEGTGTSDTQVYEHDYWGQGTQVTVSS | low polyreactivity
QVQLVESGGGLVQAGGSLRLSCAASGIIFNWYAMGWYRQAPGKERELVAGISTSGGSTYYADSVKGRFTISRDNAKNTVYLQMNSLKPEDTAVYYCAAGRRGAWQYGYYYWGQGTQVTVSS | high polyreactivity
QVQLVESGGGLVQAGGSLRLSCAASGRTSASNAMGWYREAPGKERELVATIDGIDGNTYYADSVKGRFTISRDNAKNTVYLQMNSLKPEDTAVYYCNVESWRLQAIYKYSYWGQGTQVTVSS | low polyreactivity
QVQLVESGGGLVQAGGSLRLSCAASGNIFSFYTMGWYRQAPGKERELVAAISWSGTSTYYADSVKGRFTISRDNAKNTVYLQMNSLKPEDTAVYYCAAVRRISRYDYWGQGTQVTVSS | high polyreactivity
QVQLVESGGGLVQAGGSLRLSCAASGLTFKYYAMGWYRQAPGKERELVAAISWNGDRTYYADSVKGRFTISRDNAKNTVYLQMNSLKPEDTAVYYCATKFYFSTSIAGGYWGQGTQVTVSS | high polyreactivity
QVQLVESGGGLVQAGGSLRFSCAASRRTFANNAMGWYRQAPGKERELVAAISSGGNTYYADSVKGRFTISRDNAKNTVYLQMNSLKPEDTAVYYCAARYWIYRSEYDYWGQGTQVTVSS | high polyreactivity
QVQLVESGGGLVQAGGSLRLSCAASGRILVFYAMGGYRQAPGIERELVAAISKSVRPTYYADSVKGRFTISRDNAQNTVYLQMNSLKPEDTAVYYCNTRSASDLWPQYGYWGQGTQVTVSS | low polyreactivity
QVQLVESGGGLVQAGGSLRLRCAASGFTFAPNAMGWYRQAPGKERELVAAITWSGGSTYYADSVKGRFTISRDNAKNTVYVQMNSLKPEDTAVYYCNAVSRSTVTGQHDFWGQGTQVTVSS | high polyreactivity
QVQLVDSGGGLVQAGGRLRLSCAASGSTFGWYGMGWYIQAPGKERELVASINWRGSSTYYADSVKGRFTMSRDNAKNTVYLQMNSLKPEDTAVYYCATTRDWAYNYWGQGTQVTVSS | low polyreactivity
QVQLVESGGGLVQAGGSLRLSCAASGYTFRFNAMGWYRQAPGKEREFVAAIDFGGAGTYYADSVKGRFTISRDNAKNTVYLQMNSLKPEVTAVYYCNARDGVTTEFDYWGQGTQVTVSS | low polyreactivity
QVQLVESGGGLVQAGGSLRIRSAASGGIIWWNAMGWYIQAPGKERELVAAISRSGGTTYYADSVKGRFTISRDNEKNSVYLQMNSLKPEDTAVYFCAAQYRYPGFNYWGQGSQVTVSS | high polyreactivity
QVQLVESGGGLVQAGGSLRLSCAASGRTLTGNAMGWYRQAPGKERELVAAISWSAGSTYYADSVKGRFTISRDNAKNTVYLQMNSLKPEDTAVYYCALTLRRNLVRMGYWGLGTQVTVSS | high polyreactivity
